Measurements reported in PMC7478896, “EphrinB2-EphB4 signalling provides Rho-mediated homeostatic control of lymphatic endothelial cell junction integrity” (eLife, 2020).

Target: T1, EphB4 (human (endogenous in HDLEC), UniProt P54760 16-987)
T1 sequence (looked up): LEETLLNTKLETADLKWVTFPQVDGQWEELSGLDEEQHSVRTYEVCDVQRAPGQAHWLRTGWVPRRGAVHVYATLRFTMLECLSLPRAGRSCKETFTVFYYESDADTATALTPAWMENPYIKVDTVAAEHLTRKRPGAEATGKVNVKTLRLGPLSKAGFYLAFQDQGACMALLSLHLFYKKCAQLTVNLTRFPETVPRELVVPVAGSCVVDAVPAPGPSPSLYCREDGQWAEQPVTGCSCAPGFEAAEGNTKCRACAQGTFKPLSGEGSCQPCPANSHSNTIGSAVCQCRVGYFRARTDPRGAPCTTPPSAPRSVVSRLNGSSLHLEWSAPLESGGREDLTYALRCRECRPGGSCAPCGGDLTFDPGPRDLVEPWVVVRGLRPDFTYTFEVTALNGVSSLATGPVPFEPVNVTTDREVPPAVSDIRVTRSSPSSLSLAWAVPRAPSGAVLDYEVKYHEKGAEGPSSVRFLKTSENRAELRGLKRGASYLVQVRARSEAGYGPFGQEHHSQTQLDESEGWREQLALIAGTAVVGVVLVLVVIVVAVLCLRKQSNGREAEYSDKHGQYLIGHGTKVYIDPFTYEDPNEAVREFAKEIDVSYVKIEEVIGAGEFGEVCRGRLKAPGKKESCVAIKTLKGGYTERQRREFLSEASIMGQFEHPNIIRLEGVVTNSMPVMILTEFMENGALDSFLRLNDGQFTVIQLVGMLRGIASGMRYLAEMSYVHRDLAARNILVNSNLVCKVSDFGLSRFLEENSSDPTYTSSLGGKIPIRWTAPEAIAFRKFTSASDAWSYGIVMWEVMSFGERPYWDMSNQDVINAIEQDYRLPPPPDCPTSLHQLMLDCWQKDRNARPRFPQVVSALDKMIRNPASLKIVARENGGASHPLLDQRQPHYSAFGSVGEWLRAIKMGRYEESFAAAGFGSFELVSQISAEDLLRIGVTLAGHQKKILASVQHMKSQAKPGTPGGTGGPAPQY
Assay: cell-based or functional assay

B1: recombinant human EphrinB2-Fc (Fc fusion, UniProt P52799 28-229, looked up)
chain: IVLEPIYWNSSNSKFLPGQGLVLYPQIGDKLDIICPKVDSKTVGQYEYYKVYMVDKDQADRCTIKKENTPLLNCAKPDQDIKFTIKFQEFSPNLWGLEFQKNKDYYIISTSNGSLEGLDNQEGGVCQTRAMKILMKVGQDASSAGSTRNKDPTRRPELEAGTNGRSSTTSPFVKPNPGSSTDGNSAGHSGNNILGSEVALFA
With B1 the “Rac1 activity (Rac1-GTP pull-down) in HDLECs after 30 min stimulation with 0.5 µg/ml clustered EphrinB2-Fc” value was 2 fold.
